Target: T1, human Claudin18.2 (human)
T1 construct: also called CLDN18.2
Test: cell ELISA, Claudin18.2-expressing HEK293T cells
How it was run: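 Claudin18.2-expressing HEK293T stable cells (1.5×10⁶ cells/ml in 5% skim milk/PBS blocking buffer) were incubated 1 h at room temperature in plates pre-blocked overnight at 4° C. EC₅₀ was derived by four-parameter curve fit.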

| Binder | EC50 [pM] |
| --- | --- |
| 248E6A7 (antibody, V domains shown, mouse hybridoma mAb) VH: QAYLQQSGAELVRSGASVKMSCRASGYTFTSHNMHWVKQTPGQGLEWIGYIYPGNGNTYYNQKFKVKATLTADTSSNTAYMQINSLTSEDSAVYFCVRDYYGNSFVYWGQGTLVTVSA VL: DVVMTQSPSSLTEKTGEKVTMTCKSSQSLLNSGNQKNYLAWYQQKPGQPPKLLIYWASTRESGVPDRFIGSGSGTDFTLTISSLQTEDLAVYYCQNNYMYPFTFGAGTKLELK | 396 |
| 252E7C9 (antibody, V domains shown, mouse hybridoma mAb) VH: QTYLQQSGAELVRSGASVKMSCRTSGYSFTSHNMHWVKQTPGQGLEWIGYIYPGNGGSYYNQKFKGKAILTADTSSSTAYMQISSLTSEDSAVYFCTRDYYGNSFVYWGQGTLVTVSA VL: DVVMTQSPSSLTEKTGEKVSMSCKSSQSLLNSGNQKNYLTWYQQKPGQPPKLLIYWASTRESGVPDRFTGSGSGTDFTLTISSLQTEDLAIYYCQNNFRYPFTFGAGTKLELK | ~370 |
| 252C10F6 (antibody, V domains shown, mouse hybridoma mAb) VH: QVHLKQSGRGLVQPSQSLSITCTVSGFSLPNYGVHWVRQPPGKGLEWLGVIWSGGNTDYNTVFKARLSITKDNSKSQVFFKMNSLQADDTAIYYCARNLYGNYDYAMDYWGQGTSVTVSS VL: DIVMTQSPATLSVTPGDRVSLSCRASQSISDYLHWYQQKSHESPRLLIKYASQSISGIPSRFSGSGSGSEFTLSINSVEPEDVGVYYCQNGHSFPFTFGSGTKLEIK | ~12500 |
| 234B9D4 (antibody, V domains shown, mouse hybridoma mAb) VH: EIQLQQSGPDLMKPGSSVKISCTASGYSFTSYYIHWVKQSHGKTLEWIGYIDPFNGGTRYNQKFEGKAALTVDKSSTTAYMHLTSLTSDDSAVYYCASLRFFTYWGQGTLVTVSA VL: DIVMTQSPSSLTVTAGEKVTMTCKSSQSLLNSGNQENYLTWYQQKPGQPPKLLISRASTRQSGVPDRFTGSGSGTDFTLTISSVQAEDLAVYYCQNDYSYPLTFGAGTKLELK | 4780 |
| 262C7C10 (antibody, V domains shown, mouse hybridoma mAb) VH: QAYLQQSGAELVRSGASVKMSCKASGYTFTNYNIHWVKQTPGQGLEWIGYIYPGNGGNYYNQKFKGKATLTADTSSITAYMQISSLTSEDSAVYFCARDYYGNSFAYWGQGTLVTVSA VL: DIVMTQSPSSLTVTAGEKVTMNCKSSQSLLNSGNQKNYLTWYQQKPGQPPKLLIYWASTRESGVPDRFTGSGSGTDFTLTISSVQAEDLAIYYCQNDYYYPLTFGAGTKLELK | 1770 |
| 253E4F7 (antibody, V domains shown, mouse hybridoma mAb) VH: EIQLQQSGPELMKPGASVKMSCKASGYSFTSYYIHWVKQSHGKSLEWIGYIDPFNGGTRYNQKFEGKATLTVDKSSTTAYMHLSSLTSEDSTVYYCASLRFLAYWGQGTLVTVSA VL: DIVMTQSPSSLTVTAGEKVTMTCKSSQSLLNSGNQKNYLTWYQQKPGQPPKVLISRASTRQSGVPDRFTGSGSGTDFTLTISSVQAEDLAVYYCQNDYSYPLTFGAGTKLELK | 611 |
| 240A8E7 (antibody, V domains shown, mouse hybridoma mAb) VH: QAYLQQSGAELVRSGASVKMSCKASGYTFTNYNIHWVKQTPGQGLEWIGYIYPGNGDNYYNQKFKGKATLTADTSSSTAYMQISSLTSEDSAVYFCARDYYGNSFAYWGQGTLVTVSA VL: DVVMTQSPSSLTVTAGEKVTMNCKSSQSLLNSGNQKNYLTWYQQKPGQPPKMLIYWASTRESGVPDRFTGSGSGTDFTLTISSVQAEDLAIYYCQNDYYYPFTFGAGTKLELK | 646 |
| 240F8G2 (antibody, V domains shown, mouse hybridoma mAb) VH: QAYLQQSGAELVRSGASVKMSCKASGYTFTNYNIHWVKQTPGQGLEWIGYIYPGNGGNYYNQKFKGKATLTADTSSSTAYMQISSLTSEDSAVYFCARDYYGNSFAYWGQGTLVTVSA VL: DIVVTQSPSSLTVTAGEKVTMNCKSSQSLLNSGNQKNYLTWYQQKPGQPPKLLIYWASTRESGVPDRFTGSGSGTDFTLTISSVQAEDLAIYYCQNDYYYPLTFGAGTKLELK | 880 |
| 246B5F2 (IgM) (antibody, V domains shown, mouse hybridoma mAb, IgM) VH: EVMLVESGGGLMKPGGSLKLSCAASEFTFSNYAMSWVRQTPEKRLEWVATISSGRSSTYYPDSVKGRFTISRDNAKNTLYLQMSSLRSEDTAMYYCAGLGRGNAMEYWGQGTSVTVSS VL: DIVMTQSPSSLTVTAGEKVTLSCKSSQSLLNSGNQKNYLTWYQQKPGQPPKLLIYWASTRESGVPDRFTGSGSGTDFILTINSVQAEDLAVYYCQNAYSYPFTFGSGTKLEIK | 6590 |
| 242F5H2 (antibody, V domains shown, mouse hybridoma mAb) VH: EVMLVESGGGLVKPGGSLKLSCAASGFTFSSYTVSWVRQTPEKRLEWVATSIVGSTYTYFPDSVKGRFTISRDFAKNTLFLQMSSLRSEDTAMYYCSRLGRGNAMDYWGQGTSVSVSS VL: DIVMTQSPSSLTVTAGEKVTLNCRSSQSLLNSGNQKNYLTWYQQKPGQPPKLLIYWASTRESGVPDRFTGSGSGTDFTLTISSVQADDLAVYYCQNGYSYPFTFGSGTKLEIK | ~403 |
| 194A2F7 (antibody, V domains shown, mouse hybridoma mAb) VH: QIQLVQSGPELKKPGETVKISCKASGYTFTDYLIHWVKQAPGKGLKWMGWINTETGEPTYADDFKGRFALSLETSASTACLQINNLKNEDTATYFCARIYYGNSFDYWGQGTTLTVSS VL: DIVMTQSPSSLPVTAGEKVTMTCKSSQNLLNSGNQKSYLTWYQQKPGQPPKLLIYWASTRETGVPDRFTGSGSGTDFTLTISSVQAEDLAVYYCQNAYRFPFTFGAGTRLELK | 2570 |
| 248G8E8 (antibody, V domains shown, mouse hybridoma mAb) VH: QVQLKESGPGLVAPSQSLSITCTVSGFSLTTYGVSWVRQPPGKGLEWLGVIWGDGSTNYHSTLISRLRISKDKSKSQVFLKLNSLQTDDTATYYCAKAGRGNALDYWGQGTSVTVSS VL: DIVLTQSPSSLTVTAGEKVTMSCKSSQSLLNSGNQKNYLTWYQQKPGQPPKLLIYWASTRESGVPDRFTGSGSGTDFTLTISSVQAEDLAVYYCQNDYSFPLTFGAGTKLELK | 560 |
| 237D2A4 (antibody, V domains shown, mouse hybridoma mAb) VH: QVQLKESGPGLVAPSQSLSITCTVSGFSLTSYGVSWVRQPPGKGLEWLGVIWGDGSTNYHSTLISRLRISKDKSKSQVFLKLNSLQTDDTATYYCAKAGRGNALDYWGQGTSVTVSS VL: DIVMTQSPSSLTVTAGEKVTMSCKSSQSLLNSGNQKNYLTWYQQKPGQPPKLLIYWASTRESGVPDRFTGSGSGTDFTLTISSVQAEDLAVYYCQNDYSFPLTFGAGTKLELK | 1900 |

Further lines, results first:

| EC50 [pM] | Binder |
| --- | --- |
| 875 | 292D9C7 (antibody, V domains shown, mouse hybridoma mAb) VH: QVQLKESGPGLVAPSQSLSITCTVSGFSLTDYGVSWIRQPPGKGLEWLGVIWGGGNAYYNSALKSRLSISKDNSKSQVFLKMNSLRTDDTAMYYCAKNGLLRYLDYWGQGSTLTVSS VL: DTVMTQSPSSLTVTAGEKVTMSCKSSQSLLNSGNQKNYLTWYQQKPGQPPKLLIYWASTRESGVPDRFTGSGSGRDFTLTISSVQVEDLAIYYCQNDYYYPLTFGAGTKVELK |
| 1800 | 260F8A6 (antibody, V domains shown, mouse hybridoma mAb) VH: QAYLQQSGAELVRSGASVKMSCRASGYTFTSHNMHWVKQTPGQGLEWIGYIYPGNGNTYYNQKFKGKATLTADTSSNTAYMQINSLTSEDSAVYFCVRDYYGNSFVYWGQGTLVTVSA VL: DVVMTQSPSSLTEKTGEKVSMSCKSSQSLLNSGNQKNYLTWYQQKPGQPPKLLIYWASTRESGVPDRFIGSGSGTDFTLTISSLQTEDLAVYYCQNNYMYPFTFGAGTKLELK |
| ~378 | 259B4D4 (antibody, V domains shown, mouse hybridoma mAb) VH: EIQLQQSGPELMKPGASVRISCKASGYSFTSYYMHWMKQSHVKSLEWIGYIDPFNGNTRYNQKFKDKATLTVDKSSTTAYMHLSSLTSEDSAVYFCASLRFFAYWGQGTLVTVSA VL: DIVMTQSPSSLTVTAGEKVTMSCNSSQSLLNSGNQKNYLTWYQQKPGQPPKLLIYWASSRESGVPDRFTGSGSGTDFTLTISTVQAEDLAVYYCQNDYSFPLTFGAGTRLELK |
| 1130 | 273F3D4 (antibody, V domains shown, mouse hybridoma mAb) VH: QVQLKESGPGLVAPSQSLSITCTVSGFALTTYGVSWVRQPPGKGLEWLGVIWGDGSTHYHSALISRLSIRKDNSKSQVFLKLNSLQTDDTATYYCAKPGRGNAMDYWGQGTSVTVSS VL: DIVMSQSPSSLTVTAGEKVTMSCKSSQSLLNSGNQKNYLTWYQQKPGQSPKLLIYWASTRESGVPDRFTGSGSGTDFTLTISSMQAEDLAVYYCQNDYIYPLTFGAGTMLELK |
| ~2060 | 275B2G2 (antibody, V domains shown, mouse hybridoma mAb) VH: EVMLVESGGGLVKPGGSLKLSCAASGFTFRDYTMSWVRQTPEKRLEWVATSIIGGTYTYYPDSVKGRFTISRDNVKNTLYLQMSSLRSEDTAMYYCSRLGRGNAMDYWGQGTSVTVSS VL: DIVMTQSPSSLTVTAGEKVTMSCKSSQSLLNSGNQKNYLTWYQQKPGQPPKLLIYWASTRESGVPDRFTGSGSGTDFTLTISSVQAEDLAVYYCQNDYSYPFTFGSGTKLEIK |
| ~411 | 268D7H9 (antibody, V domains shown, mouse hybridoma mAb) VH: QAYLQQSGAELVRSGASVKMSCKASGYTFTNYNIHWVKQTPGQGLEWIGYIYPGNGGNYYNQKFKGKATLTADTSSSTAYMQISSLTSEDSAVYFCARDYYGNSFAYWGQGTLVTVSA VL: DIAMTQSPSSLTVTAGEKVTMNCKSSQSLLNSGNQKNYLTWYQQKPGQPPKLLIYWASTRESGVPDRFTGSGSGTDFTLTISSVQAEDLAIYYCQNDYYYPLTFGAGTTLELK |
| 1080 | 263E9F3 (antibody, V domains shown, mouse hybridoma mAb) VH: EIQVQQSGPELMKPGASVKISCRSSGYSFTSYYIHWVKQSRGKSLEWIGYIDPFSGGTRYNQKFEGKATLTVDKSSTTAYMHLSSLTSEDSAVYYCASLRFFAYWGQGTLVTVSA VL: DIVMTQSPSSLTVTAGEKVTMTCKSSQSLLNSGNQENYLTWYQQKPGQPPELLISRASTRQSGVPDRFTGSGSGTDFTLTISSVQTEDLAVYYCQNDYSYPLTFGAGTKLELK |
| 982 | 254A8D5 (antibody, V domains shown, mouse hybridoma mAb) VH: EVMLVESGGGLVKPGGSLKLSCAASGFTFSSYTVSWVRQTPEKRLEWVATSIVGSTYTYFPDSVKGRFTISRDFAKNTLFLQMSSLRSEDTAMYYCSRLGRGNAMDYWGQGTSVSVSS VL: DIVMTQSPSSLTVTAGEKVTLNCRSSQSLLNSGNQKNYLTWYQQKPGQPPKLLIYWASTRESGVPDRFTGSGSGTDFTLTISSVQADDLAVYYCQNGYSYPFTFGSGTKLEIK |
| ~397 | 266B11F7 (antibody, V domains shown, mouse hybridoma mAb) VH: QVQMKESGPGLVAPSQSLSITCTVSGFSLTTYGVTWVRQPPGKGLEWLGVIWGDGSTNYHSALTSRLRISKDKSKSQVFLKLSSLQTDDTATYYCAKPGRGNALDYWGQGTSVTVSS VL: DIVMTQSPSSLTVTAGEKVTMRCKSSQSLLNSGNQKNYLTWYQQKPGQPPKLLVYWASTRESGVPDRFTGSGSGTDFTLTVSSVQAEDLAVYYCQNDYIFPLTFGAGTKLELK |
